Molecular target: T1, GST-PCAF (aa 352–832) (human, UniProt Q92831 352-832)
T1 construct: PCAF (KAT2B), residues 352-832, fused to GST; Written GST-PCAF; source: bacterially expressed and purified
Test: pull-down; purified VRK1-His and GST-PCAF (aa 352–832) incubated in 20 mM Tris–HCl pH 7.5, 5 mM MgCl2, 0.5 mM DTT, 150 mM KCl at 37 °C for 45 min; Glutathione Sepharose 4B overnight at 4 °C; SDS-PAGE, Coomassie staining; dose-dependent
Settings: both partners purified

T1 sequence (Q92831 352-832): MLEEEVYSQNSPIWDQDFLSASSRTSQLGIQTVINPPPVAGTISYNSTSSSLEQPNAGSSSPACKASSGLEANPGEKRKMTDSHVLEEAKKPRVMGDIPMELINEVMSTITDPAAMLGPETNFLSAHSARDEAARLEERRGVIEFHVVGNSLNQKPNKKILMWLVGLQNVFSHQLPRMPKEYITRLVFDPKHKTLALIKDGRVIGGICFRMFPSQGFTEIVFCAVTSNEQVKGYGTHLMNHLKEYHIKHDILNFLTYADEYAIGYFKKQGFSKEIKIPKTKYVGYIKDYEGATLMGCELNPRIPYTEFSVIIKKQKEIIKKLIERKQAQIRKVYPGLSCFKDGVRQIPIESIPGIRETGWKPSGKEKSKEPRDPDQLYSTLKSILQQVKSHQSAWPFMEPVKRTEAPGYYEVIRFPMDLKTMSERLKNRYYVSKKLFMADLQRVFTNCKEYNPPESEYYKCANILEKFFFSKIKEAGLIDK

B1: VRK1-His (enzyme, human, UniProt Q99986 1-396, looked up)
chain: MPRVKAAQAGRQSSAKRHLAEQFAVGEIITDMAKKEWKVGLPIGQGGFGCIYLADMNSSESVGSDAPCVVKVEPSDNGPLFTELKFYQRAAKPEQIQKWIRTRKLKYLGVPKYWGSGLHDKNGKSYRFMIMDRFGSDLQKIYEANAKRFSRKTVLQLSLRILDILEYIHEHEYVHGDIKASNLLLNYKNPDQVYLVDYGLAYRYCPEGVHKEYKEDPKRCHDGTIEFTSIDAHNGVAPSRRGDLEILGYCMIQWLTGHLPWEDNLKDPKYVRDSKIRYRENIASLMDKCFPEKNKPGEIAKYMETVKLLDYTEKPLYENLRDILLQGLKAIGSKDDGKLDLSVVENGGLKAKTITKKRKKEIEESKEPGVEDTEWSNTQTEEAIQTRSRTRKRVQK
notes: VRK1 with a His tag, bacterially expressed and purified; Printed both as His-VRK1 (results) and VRK1-His (methods); the end of the tag cannot be told; also called His-VRK1; source: bacterially expressed and purified
- binding result: binds

From paper PMC10182654, “The pattern of histone H3 epigenetic posttranslational modifications is regulated by the VRK1 chromatin kinase” (Epigenetics & Chromatin, 2023)
